T1: α-synCas (synthetic ancestral Cas12a-like nuclease, ASR) (synthetic construct (ancestral …, UniProt PDB:8QWE_1 1-1261))
T1 chain: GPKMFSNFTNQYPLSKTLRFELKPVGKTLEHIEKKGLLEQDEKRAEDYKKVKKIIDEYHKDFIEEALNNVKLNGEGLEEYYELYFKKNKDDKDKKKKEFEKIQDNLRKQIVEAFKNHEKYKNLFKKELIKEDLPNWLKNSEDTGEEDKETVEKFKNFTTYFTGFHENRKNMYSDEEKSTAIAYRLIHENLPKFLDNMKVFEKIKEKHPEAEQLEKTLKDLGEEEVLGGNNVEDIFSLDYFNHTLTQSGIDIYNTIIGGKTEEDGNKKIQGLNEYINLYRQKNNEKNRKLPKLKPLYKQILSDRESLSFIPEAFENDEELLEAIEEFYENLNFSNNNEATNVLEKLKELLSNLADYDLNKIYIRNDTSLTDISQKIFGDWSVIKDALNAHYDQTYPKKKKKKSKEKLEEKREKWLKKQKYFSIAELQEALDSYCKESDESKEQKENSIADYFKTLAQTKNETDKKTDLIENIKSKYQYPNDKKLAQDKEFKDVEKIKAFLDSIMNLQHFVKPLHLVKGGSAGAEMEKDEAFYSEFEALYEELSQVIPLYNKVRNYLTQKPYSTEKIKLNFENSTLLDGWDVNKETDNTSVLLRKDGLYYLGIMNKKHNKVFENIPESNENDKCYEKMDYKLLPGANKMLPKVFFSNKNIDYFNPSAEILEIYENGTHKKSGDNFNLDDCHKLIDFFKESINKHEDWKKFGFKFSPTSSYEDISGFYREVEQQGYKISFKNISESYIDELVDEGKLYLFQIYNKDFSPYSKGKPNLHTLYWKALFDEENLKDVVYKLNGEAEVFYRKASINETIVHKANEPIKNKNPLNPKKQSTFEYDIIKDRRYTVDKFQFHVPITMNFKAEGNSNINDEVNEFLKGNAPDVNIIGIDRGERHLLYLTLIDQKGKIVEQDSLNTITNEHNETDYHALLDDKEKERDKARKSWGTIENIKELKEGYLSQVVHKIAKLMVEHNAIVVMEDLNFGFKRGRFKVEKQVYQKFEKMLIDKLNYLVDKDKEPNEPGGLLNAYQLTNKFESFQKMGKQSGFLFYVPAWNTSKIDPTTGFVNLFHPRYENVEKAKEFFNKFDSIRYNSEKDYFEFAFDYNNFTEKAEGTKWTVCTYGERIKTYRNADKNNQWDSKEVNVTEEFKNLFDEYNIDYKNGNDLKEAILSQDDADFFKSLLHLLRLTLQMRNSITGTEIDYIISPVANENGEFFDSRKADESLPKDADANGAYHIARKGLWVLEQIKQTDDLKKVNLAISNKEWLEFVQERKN

B1: crRNA + target dsDNA (cis DNA), ternary complex (mixed)
RNA: AAUUUCUACUGUUGUAGAUUCCUAAGGCGUUACCCCAAU
DNA 1: CTAGCATATTTATCCTAAGGCGTTACCCCAATGGGAGGG
DNA 2: CCCTCCCATTGGGGTAACGCCTTAGGATAAATATGCTAG
B2: crRNA (cryo-EM) (structured_RNA)
RNA: B1 RNA

Columns and labels:
[1] = target: T1, α-synCas (synthetic ancestral …); experiment: cryo-EM
[2] = target: T1, α-synCas (synthetic ancestral …); experiment: size exclusion chromatography

Binder | binding result [1] | binding result [2]
B1 | binds | –
B2 | – | binds

Source: publication doi:10.1101/2023.11.12.566739
